Experimental findings from publication PMC3675495 are described below.

In the assay the target is Su(Hw) (Drosophila (endogenous in embryo nuclear extract)) (UniProt P08970). The assay is described as follows: co-IP.
Chain of UniProt P08970 (P08970 whole entry): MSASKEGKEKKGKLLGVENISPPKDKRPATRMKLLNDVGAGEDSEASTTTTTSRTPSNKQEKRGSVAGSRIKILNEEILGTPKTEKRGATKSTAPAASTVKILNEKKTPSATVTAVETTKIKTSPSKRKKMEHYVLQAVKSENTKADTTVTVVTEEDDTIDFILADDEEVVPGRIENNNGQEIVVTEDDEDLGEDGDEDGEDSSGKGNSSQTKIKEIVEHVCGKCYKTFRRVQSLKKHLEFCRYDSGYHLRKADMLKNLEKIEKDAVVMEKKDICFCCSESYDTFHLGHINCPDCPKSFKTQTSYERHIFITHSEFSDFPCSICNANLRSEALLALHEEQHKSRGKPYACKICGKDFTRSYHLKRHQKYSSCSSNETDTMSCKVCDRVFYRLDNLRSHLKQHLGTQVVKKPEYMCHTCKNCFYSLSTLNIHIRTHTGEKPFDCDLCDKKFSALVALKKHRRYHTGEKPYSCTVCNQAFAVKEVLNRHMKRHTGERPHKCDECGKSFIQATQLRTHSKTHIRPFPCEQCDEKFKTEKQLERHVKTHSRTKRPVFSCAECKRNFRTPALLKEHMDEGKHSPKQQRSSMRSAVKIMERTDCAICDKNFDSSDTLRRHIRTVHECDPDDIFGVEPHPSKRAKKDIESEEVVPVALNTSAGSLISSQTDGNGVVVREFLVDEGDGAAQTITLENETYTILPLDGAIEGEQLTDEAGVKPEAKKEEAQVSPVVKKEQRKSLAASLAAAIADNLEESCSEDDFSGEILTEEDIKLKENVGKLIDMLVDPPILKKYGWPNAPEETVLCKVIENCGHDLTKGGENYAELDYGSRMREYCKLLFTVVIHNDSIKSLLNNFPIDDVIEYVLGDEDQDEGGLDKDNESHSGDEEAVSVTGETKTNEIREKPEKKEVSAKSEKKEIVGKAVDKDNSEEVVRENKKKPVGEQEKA

For the substance OSA, Q8IN94 1-2716, the percent co-precipitated is 0.5%.
